Measured values taken from article PMC3738495, “Structure of the Parainfluenza Virus 5 (PIV5) Hemagglutinin-Neuraminidase (HN) Ectodomain” (PLoS Pathogens, 2013).

Target: the molecule itself
Assay: crystal structure; PIV5 HN ectodomain 56-565 at ~10 mg/mL with a 1.2 molar excess of sialyllactose; 1.6 M ammonium sulfate, 0.1 M MES pH 6.5, 10% 1,4-dioxane, room temperature; space group I4, 2.5 Å

B1: PIV5 HN ectodomain (56-565) (domain or fragment)
chain: SGLGSITDLLNNILSVANQIIYNSAVALPLQLDTLESTLLTAIKSLQTSDKLEQNCSWSAALINDNRYINGINQFYFSIAEGRNLTLGPLLNMPSFIPTATTPEGCTRIPSFSLTKTHWCYTHNVILNGCQDHVSSNQFVSMGIIEPTSAGFPFFRTLKTLYLSDGVNRKSCSISTVPGGCMMYCFVSTQPERDDYFSAAPPEQRIIIMYYNDTIVERIINPPGVLDVWATLNPGTGSGVYYLGWVLFPIYGGVIKGTSLWNNQANKYFIPQMVAALCSQNQATQVQNAKSSYYSSWFGNRMIQSGILACPLRQDLTNECLVLPFSNDQVLMGAEGRLYMYGDSVYYYQRSNSWWPMTMLYKVTITFTNGQPSAISAQNVPTQQVPRPGTGDCSATNRCPGFCLTGVYADAWLLTNPSSTSTFGSEATFTGSYLNTATQRINPTMYIANNTQIISSQQFGSSGQEAAYGHTTCFRDTGSVMVYCIYIIELSSSLLGQFQIVPFIRQVTLS
notes: Hemagglutinin-neuraminidase (HN) of parainfluenza virus 5, ectodomain residues 56-565 (stalk 56-101, linker 102-117, head from I118); also called parainfluenza virus 5 hemagglutinin-neuraminidase ectodomain
For B1, the “stoichiometry N” value was 4.
